Test results published in patent publication US20180127510A1 (INSERM INSTITUT NATIONAL DE LA SANT ET DE LA RECHERCHE M …, published 2018).
Residue numbers refer to the chain shown, from its start. Values belong to the binder of their own block, whether it stands above or below them.

Experiments:
[1] = molecular target: T1, human 51-kDa pseudo-Cath-D (human, UniProt P07339 47-412, limits assumed); experiment: cleavage of fluorogenic substrate M2295 by pseudo-Cath-D at pH 6, competitive inhibition fit (n=3)
T1 construct: domain: 51-kDa pseudo-Cath-D
T1 sequence (P07339 47-412 limits assumed): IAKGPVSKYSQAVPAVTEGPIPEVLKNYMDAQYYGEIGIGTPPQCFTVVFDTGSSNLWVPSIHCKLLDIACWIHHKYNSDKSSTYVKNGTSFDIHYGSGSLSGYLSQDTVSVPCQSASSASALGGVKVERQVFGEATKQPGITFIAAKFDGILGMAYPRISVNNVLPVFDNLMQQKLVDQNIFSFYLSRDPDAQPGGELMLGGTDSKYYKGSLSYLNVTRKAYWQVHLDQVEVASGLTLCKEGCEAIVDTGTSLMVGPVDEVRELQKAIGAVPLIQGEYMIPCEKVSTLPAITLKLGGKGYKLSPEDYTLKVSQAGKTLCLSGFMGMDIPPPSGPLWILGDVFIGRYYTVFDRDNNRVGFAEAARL

[2] = molecular target: T2, human mature (34+14-kDa) Cath-D (human, UniProt P07339 65-162; P07339 169-412); experiment: cleavage of fluorogenic substrate M0938 by mature Cath-D at pH 6, competitive inhibition fit (n=3)
T2 construct: domain: 14-kDa light chain;domain: 34-kDa heavy chain; Purified from human liver (Sigma Aldrich); also called mature Cath-D; mature cath-D
T2 sequence (P07339 65-162 limits assumed, chain 1 of 2): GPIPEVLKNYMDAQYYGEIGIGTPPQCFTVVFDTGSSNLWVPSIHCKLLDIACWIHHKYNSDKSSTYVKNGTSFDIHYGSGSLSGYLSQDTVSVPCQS
T2 sequence (P07339 169-412 limits assumed, chain 2 of 2): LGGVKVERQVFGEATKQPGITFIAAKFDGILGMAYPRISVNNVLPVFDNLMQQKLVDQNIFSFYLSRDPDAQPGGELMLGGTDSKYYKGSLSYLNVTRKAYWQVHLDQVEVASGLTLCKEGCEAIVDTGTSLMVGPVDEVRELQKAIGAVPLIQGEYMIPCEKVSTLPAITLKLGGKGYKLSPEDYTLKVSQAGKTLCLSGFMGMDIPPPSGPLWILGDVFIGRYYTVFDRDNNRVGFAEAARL

- Ki [1]: 754 nM
- Ki [2]: 24 nM
B1: anti-Cath-D scFv E2 (scFv, V domains shown)
VH: EVQLVESGGSLVKPGGSLRLSCAASGFTFSNSYMNWVRQAPGKGLEWISYISGSSRYSYADFVKGRFTISRDNATNSLYLQMNSLRAEDTAVYYCVRSSNSYFGGGMDVWGRGTLVTVSS
VL: QSVLTQPASVSGSPGQSITISCAGTSSDVGGSYGVSWYQQHPGKAPKLMIYGDSYRPSGVSNRFSGSKSGNTASLTISGLQAEDEADYYCSSYTNYSTRVFGGGTKLAVL

- Ki [1]: 212 nM
- Ki [2]: 100 nM
B2: anti-Cath-D scFv F1 (scFv, V domains shown)
VH: EVQLVESGGSLVKPGGSLRLSCAASGFTSNNYMNWVRQAPGKGLEWISYISGSSRYISYADFVKGRFTISRDNATNSLYLQMNSLRAEDTAVYYCVRSSNSGGMDVWGRGTLVTVSS
VL: B1 VL with S32Y, G52Y, N95S, Y96N
